{"source": "patent US20080220446", "key": {"[1]": {"target": "T1, recombinant human β2-glycoprotein I (insect cells), P02749", "T1 chain": "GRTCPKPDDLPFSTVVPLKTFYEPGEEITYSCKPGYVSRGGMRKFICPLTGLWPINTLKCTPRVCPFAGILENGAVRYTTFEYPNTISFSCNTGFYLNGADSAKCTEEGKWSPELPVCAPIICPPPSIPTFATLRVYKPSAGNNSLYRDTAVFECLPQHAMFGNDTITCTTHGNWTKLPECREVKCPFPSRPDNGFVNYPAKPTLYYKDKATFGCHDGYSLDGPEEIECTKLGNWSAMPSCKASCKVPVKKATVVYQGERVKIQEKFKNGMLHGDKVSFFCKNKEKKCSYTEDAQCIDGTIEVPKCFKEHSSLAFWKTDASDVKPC"}, "[2]": {"target": "T2, β2GPI purified from fresh human plasma, P02749", "T2 chain": "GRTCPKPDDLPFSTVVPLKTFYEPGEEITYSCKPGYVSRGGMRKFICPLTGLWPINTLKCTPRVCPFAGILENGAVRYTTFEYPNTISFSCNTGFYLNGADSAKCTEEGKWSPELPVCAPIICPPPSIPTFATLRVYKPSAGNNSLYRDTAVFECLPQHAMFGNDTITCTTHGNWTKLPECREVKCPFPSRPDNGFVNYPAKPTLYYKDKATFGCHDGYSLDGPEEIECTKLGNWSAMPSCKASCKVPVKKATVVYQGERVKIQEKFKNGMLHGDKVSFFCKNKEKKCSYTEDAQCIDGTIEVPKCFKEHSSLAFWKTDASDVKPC"}, "[3]": {"target": "native murine serum albumin (nMSA), P07724", "sequence (P07724 25-608)": "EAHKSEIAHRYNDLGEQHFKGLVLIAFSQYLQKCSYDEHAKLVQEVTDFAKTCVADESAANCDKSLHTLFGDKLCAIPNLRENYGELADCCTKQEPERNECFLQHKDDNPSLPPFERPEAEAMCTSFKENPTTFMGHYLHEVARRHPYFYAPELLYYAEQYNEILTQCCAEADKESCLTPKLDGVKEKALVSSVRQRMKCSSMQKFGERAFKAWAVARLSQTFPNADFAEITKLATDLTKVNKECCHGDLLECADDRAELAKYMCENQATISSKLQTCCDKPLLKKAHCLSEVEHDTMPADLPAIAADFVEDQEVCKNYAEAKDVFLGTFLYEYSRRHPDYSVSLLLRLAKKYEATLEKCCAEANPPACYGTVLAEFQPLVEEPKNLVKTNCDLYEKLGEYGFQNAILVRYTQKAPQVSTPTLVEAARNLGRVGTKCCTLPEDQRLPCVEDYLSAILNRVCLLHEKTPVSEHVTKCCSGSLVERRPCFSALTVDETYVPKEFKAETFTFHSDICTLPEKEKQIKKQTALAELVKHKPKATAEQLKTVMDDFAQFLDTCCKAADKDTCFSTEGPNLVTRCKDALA"}, "[4]": {"target": "amyloid γ-globulins (denatured human γ-globulins)"}, "[5]": {"target": "human glucagon (Glucagen), freshly dissolved, P01275", "sequence (P01275 53-81)": "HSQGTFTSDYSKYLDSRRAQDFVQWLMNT"}, "[6]": {"target": "endostatin (EntreMed, Inc.), P39060", "sequence (P39060 whole entry, looked up)": "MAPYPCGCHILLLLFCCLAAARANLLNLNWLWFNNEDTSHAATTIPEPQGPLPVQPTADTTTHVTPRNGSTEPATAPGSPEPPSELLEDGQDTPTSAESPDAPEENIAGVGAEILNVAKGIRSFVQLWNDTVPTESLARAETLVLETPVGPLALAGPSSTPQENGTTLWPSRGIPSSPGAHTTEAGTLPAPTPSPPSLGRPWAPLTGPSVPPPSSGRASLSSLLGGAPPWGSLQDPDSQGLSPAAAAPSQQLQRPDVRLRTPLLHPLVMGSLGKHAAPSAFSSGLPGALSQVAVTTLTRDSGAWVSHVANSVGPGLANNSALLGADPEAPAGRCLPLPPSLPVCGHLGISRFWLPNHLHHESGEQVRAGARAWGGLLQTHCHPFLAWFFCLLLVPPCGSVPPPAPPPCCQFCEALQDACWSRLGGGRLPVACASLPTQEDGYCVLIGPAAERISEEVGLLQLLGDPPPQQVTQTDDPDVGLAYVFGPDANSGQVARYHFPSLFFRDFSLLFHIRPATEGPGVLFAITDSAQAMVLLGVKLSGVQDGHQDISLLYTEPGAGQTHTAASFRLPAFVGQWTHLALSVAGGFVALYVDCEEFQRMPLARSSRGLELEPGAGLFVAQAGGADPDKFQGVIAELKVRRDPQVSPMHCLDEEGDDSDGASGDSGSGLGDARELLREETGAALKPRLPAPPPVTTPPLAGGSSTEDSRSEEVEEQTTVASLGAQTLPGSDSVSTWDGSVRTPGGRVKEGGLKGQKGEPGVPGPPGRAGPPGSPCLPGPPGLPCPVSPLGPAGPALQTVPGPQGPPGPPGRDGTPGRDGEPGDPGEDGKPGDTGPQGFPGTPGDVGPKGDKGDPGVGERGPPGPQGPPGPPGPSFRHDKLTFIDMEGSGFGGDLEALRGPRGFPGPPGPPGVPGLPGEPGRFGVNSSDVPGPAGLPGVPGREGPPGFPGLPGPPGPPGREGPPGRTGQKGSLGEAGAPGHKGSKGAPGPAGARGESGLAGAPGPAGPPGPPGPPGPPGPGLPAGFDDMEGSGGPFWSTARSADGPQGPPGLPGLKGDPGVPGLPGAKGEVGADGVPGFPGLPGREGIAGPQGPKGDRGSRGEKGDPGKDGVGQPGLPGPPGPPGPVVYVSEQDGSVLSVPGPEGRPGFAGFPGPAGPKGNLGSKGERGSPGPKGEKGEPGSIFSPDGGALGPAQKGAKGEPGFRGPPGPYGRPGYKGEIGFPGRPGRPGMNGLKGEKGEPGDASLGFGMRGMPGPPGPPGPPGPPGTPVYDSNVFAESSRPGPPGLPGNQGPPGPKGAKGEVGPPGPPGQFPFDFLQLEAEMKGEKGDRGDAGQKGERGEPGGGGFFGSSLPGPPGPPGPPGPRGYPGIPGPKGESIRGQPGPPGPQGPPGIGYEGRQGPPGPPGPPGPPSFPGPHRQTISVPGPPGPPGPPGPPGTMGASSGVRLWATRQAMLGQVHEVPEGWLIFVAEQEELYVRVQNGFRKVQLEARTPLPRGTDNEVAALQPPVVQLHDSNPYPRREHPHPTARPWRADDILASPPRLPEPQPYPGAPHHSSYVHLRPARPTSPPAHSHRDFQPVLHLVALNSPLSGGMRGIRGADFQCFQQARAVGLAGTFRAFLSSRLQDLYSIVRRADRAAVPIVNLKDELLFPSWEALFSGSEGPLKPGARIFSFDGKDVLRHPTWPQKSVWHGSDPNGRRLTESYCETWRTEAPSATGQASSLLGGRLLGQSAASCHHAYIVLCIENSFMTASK"}, "[7]": {"target": "T3, alkyl-β2gpi (reduced and alkylated β2-glycoprotein I), P02749", "T3 chain": "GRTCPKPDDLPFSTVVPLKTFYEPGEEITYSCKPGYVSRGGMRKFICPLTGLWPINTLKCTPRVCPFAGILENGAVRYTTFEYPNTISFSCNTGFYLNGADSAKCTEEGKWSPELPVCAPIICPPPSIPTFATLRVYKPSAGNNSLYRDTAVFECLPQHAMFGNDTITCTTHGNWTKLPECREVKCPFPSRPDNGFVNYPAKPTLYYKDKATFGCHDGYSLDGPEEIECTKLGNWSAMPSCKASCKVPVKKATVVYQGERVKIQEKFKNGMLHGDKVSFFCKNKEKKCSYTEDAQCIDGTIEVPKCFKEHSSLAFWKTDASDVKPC"}, "[8]": {"target": "heat/acid-denatured human glucagon, P01275"}, "[9]": {"target": "human coagulation factor VIII (FVIII) (Aafact), P00451", "sequence (P00451 whole entry, looked up)": "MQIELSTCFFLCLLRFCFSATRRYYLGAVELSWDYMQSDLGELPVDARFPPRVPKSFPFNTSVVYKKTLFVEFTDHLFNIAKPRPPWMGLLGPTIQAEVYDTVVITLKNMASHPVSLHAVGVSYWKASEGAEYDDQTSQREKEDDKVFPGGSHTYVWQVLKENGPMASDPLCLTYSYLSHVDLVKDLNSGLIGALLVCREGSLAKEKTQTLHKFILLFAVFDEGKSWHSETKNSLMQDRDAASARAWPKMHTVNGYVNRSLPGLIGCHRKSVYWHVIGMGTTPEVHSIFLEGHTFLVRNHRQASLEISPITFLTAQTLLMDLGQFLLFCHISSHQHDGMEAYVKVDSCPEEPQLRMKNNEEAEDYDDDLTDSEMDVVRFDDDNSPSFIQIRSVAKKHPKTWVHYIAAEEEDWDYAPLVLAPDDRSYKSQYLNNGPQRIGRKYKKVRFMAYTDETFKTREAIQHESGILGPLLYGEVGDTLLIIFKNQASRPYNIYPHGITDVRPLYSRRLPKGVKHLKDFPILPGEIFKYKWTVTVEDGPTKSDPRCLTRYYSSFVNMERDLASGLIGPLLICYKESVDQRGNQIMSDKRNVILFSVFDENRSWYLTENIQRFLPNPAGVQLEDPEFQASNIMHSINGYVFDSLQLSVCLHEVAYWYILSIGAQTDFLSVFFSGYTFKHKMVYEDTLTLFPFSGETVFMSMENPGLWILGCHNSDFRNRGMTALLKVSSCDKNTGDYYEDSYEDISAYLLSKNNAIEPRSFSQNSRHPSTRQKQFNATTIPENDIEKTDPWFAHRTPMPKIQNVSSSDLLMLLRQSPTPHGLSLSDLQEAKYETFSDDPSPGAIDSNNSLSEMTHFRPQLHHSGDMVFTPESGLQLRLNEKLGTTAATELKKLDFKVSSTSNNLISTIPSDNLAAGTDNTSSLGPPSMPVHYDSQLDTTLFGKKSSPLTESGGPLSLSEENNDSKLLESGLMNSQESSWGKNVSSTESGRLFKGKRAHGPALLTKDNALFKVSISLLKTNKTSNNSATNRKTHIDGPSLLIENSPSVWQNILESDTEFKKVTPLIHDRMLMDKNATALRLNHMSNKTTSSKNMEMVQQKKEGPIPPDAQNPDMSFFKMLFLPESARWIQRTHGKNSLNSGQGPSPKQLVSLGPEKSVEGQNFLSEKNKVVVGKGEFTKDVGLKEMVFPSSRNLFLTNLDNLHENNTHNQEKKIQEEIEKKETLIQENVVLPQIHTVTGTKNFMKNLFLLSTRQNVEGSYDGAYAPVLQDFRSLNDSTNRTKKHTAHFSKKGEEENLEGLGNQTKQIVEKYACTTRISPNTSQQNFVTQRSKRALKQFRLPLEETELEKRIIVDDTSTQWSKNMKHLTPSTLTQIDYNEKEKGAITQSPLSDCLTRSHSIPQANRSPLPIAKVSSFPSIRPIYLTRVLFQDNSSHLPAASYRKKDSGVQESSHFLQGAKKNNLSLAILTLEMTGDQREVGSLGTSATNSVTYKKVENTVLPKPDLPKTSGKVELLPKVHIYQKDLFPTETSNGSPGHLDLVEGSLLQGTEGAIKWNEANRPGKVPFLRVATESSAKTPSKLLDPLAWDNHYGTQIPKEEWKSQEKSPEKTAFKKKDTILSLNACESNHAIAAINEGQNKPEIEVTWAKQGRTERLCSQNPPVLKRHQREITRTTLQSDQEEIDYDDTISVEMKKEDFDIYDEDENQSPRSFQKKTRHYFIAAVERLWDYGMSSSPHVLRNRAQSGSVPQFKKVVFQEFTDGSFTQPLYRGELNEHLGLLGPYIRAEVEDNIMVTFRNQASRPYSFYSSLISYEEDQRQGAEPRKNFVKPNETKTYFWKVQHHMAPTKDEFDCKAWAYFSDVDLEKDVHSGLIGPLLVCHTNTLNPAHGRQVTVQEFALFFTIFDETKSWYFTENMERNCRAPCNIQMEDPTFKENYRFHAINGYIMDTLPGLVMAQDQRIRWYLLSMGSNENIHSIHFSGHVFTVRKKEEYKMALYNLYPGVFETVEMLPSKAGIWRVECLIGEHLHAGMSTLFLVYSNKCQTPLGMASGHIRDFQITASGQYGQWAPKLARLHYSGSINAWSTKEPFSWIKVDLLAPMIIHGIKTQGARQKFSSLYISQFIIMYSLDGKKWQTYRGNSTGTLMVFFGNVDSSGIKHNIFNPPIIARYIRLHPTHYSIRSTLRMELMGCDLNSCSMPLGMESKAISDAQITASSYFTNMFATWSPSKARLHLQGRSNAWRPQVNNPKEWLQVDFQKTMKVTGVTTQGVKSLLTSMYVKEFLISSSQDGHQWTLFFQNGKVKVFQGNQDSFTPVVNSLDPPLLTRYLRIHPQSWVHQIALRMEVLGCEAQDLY"}, "[10]": {"target": "T4, β2GPI exposed to cardiolipin (CL), P02749", "T4 chain": "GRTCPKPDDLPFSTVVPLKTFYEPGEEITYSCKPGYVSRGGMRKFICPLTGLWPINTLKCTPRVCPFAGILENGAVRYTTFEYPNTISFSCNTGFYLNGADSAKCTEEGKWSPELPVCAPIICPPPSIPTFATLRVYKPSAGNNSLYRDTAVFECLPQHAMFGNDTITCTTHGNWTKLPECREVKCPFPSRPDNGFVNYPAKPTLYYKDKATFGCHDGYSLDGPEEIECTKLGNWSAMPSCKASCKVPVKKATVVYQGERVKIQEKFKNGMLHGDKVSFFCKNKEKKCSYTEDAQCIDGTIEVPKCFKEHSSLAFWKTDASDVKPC"}, "[11]": {"target": "human modified gelatin (Gelofusine)"}}}
{"protein": "tissue-type plasminogen activator (tPA) (protein) SYQVICRDEKTQMIYQQHQSWLRPVLRSNRVEYCWCNSGRAQCHSVPVKSCSEPRCFNGGTCQQALYFSDFVCQCPEGFAGKCCEIDTRATCYEDQGISYRGTWSTAESGAECTNWNSSALAQKPYSGRRPDAIRLGLGNHNYCRNPDRDSKPWCYVFKAGKYSSEFCSTPACSEGNSDCYFGNGSAYRGTHSLTESGASCLPWNSMILIGKVYTAQNPSAQALGLGKHNYCRNPDGDAKPWCHVLKNRRLTWEYCDVPSCSTCGLRQYSQPQFRIKGGLFADIASHPWQAAIFAKHRRSPGERFLCGGILISSCWILSAAHCFQERFPPHHLTVILGRTYRVVPGEEEQKFEVEKYIVHKEFDDDTYDNDIALLQLKSDSSRCAQESSVVRTVCLPPADLQLPDWTECELSGYGKHEALSPFYSERLKEAHVRLYPSSRCTSQHLLNRTVTDNMLCAGDTRSGGPQANLHDACQGDSGGPLVCLNDGRMTLVGIISWGLGCGQKDVPGVYTKVTNYLDWIRDNMRP", "values": [{"measurement": "tPA-mediated conversion of Plg to Pls (substrate S-2251)", "setting": "[1]", "result": "Recombinant β2GPI, but not β2GPI purified from fresh plasma stimulate tPA-mediated conversion of Plg to Pls"}, {"measurement": "tPA-mediated conversion of Plg to Pls (substrate S-2251)", "setting": "[2]", "result": "Recombinant β2GPI, but not β2GPI purified from fresh plasma stimulate tPA-mediated conversion of Plg to Pls"}, {"measurement": "stimulation of tPA activation", "setting": "[3]", "result": "also native MSA enhanced ThT fluorescence to some extent, but this was not reflected by stimulation of tPA activation"}, {"measurement": "tPA-mediated activation of Plg (chromogenic Plg-activation assay)", "setting": "[4]", "result": "Centrifugation had no effect on the stimulatory effect of Hb-AGE and amyloid γ-globulins on tPA-mediated activation of Plg"}, {"measurement": "tPA activating potential", "setting": "[5]", "result": "at high glucagon concentration, also native glucagon had some tPA activating potential"}, {"measurement": "tPA activation, Max. Activation (%) (tPA-dependent plasminogen activation, % of standardized positive control)", "setting": "[5]", "result": 11.2, "unit": "%"}, {"measurement": "tPA activating properties (Plg-activation assay)", "setting": "[6]", "result": "the absence of tPA activating properties in 100 µg ml^-1 endostatin"}, {"measurement": "ability to activate tPA/plasminogen", "setting": "[7]", "result": "Alkylation of β2gpi results in amyloid-like properties when the ability to activate tPA/plasminogen is considered"}, {"measurement": "tPA activation", "setting": "[8]", "result": "a potent activator of tPA was obtained"}, {"measurement": "tPA activation, Max. Activation (%) (tPA-dependent plasminogen activation, % of standardized positive control)", "setting": "[9]", "result": 4.22, "unit": "%"}, {"measurement": "generation of plasmin from tPA/plasminogen", "setting": "[10]", "result": "Generation of plasmin from tPA/plasminogen is accelerated when β2gpi is exposed to cardiolipin (CL-β2gpi)"}]}
{"protein": "factor XII (purified human factor XII from plasma) (protein) IPPWEAPKEHKYKAEEHTVVLTVTGEPCHFPFQYHRQLYHKCTHKGRPGPQPWCATTPNFDQDQRWGYCLEPKKVKDHCSKHSPCQKGGTCVNMPSGPHCLCPQHLTGNHCQKEKCFEPQLLRFFHKNEIWYRTEQAAVARCQCKGPDAHCQRLASQACRTNPCLHGGRCLEVEGHRLCHCPVGYTGAFCDVDTKASCYDGRGLSYRGLARTTLSGAPCQPWASEATYRNVTAEQARNWGLGGHAFCRNPDNDIRPWCFVLNRDRLSWEYCDLAQCQTPTQAAPPTPVSPRLHVPLMPAQPAPPKPQPTTRTPPQSQTPGALPAKREQPPSLTRNGPLSCGQRLRKSLSSMTRVVGGLVALRGAHPYIAALYWGHSFCAGSLIAPCWVLTAAHCLQDRPAPEDLTVVLGQERRNHSCEPCQTLAVRSYRLHEAFSPVSYQHDLALLRLQEDADGSCALLSPYVQPVCLPSGAARPSETTLCQVAGWGHQFEGAEEYASFLQEAQVPFLSLERCSAPDVHGSSILPGMLCAGFLEGGTDACQGDSGGPLVCEDQAAERRLTLQGIISWGSGCGDRNKPGVYTDVAYYLAWIREHTVS", "values": [{"measurement": "factor XII activation (chromogenic kallikrein assay)", "setting": "[11]", "result": "Only gelatin kept at 37 °C activated factor XII"}]}
